The series concerns the molecule itself. Description: crystal structure.

B1: SARS-CoV main protease (M^pro) (enzyme)
chain: SGFRKMAFPSGKVEGCMVQVTCGTTTLNGLWLDDTVYCPRHVICTAEDMLNPNYEDLLIRKSNHSFLVQAGNVQLRVIGHSMQNCLLRLKVDTSNPKTPKYKFVRIQPGQTFSVLACYNGSPSGVYQCAMRPNHTIKGSFLNGSCGSVGFNIDYDCVSFCYMHHMELPTGVHAGTDLEGKFYGPFVDRQTAQAAGTDTTITLNVLAWLYAAVINGDRWFLNRFTTTLNDFNLVAMKYNYEPLTQDHVDILGPLSAQTGIAVLDMCAALKELLQNGMNGRTILGSTILEDEFTPFDVVRQCSGVTFQ
Turning to B1, the binding result was “binds”.

The values above are taken from publication doi:10.1101/2021.02.16.431021 (bioRxiv, 2021).
